According to patent publication US20050048055A1:

Target: mouse CD40 on BALB/c thymocytes (mouse) (UniProt P27512)
Assay: cell-based or functional assay

Chain of UniProt P27512 (P27512 20-289): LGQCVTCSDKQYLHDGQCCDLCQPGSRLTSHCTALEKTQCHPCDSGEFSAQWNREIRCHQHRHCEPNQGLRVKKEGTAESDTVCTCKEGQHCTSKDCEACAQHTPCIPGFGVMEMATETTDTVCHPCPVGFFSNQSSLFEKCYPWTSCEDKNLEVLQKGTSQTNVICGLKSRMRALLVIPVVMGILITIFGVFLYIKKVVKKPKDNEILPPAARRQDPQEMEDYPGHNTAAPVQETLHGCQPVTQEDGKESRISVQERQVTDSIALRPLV

increase in Vα8 expression in gated DP thymocytes: 12%
percent Vα11+ thymocytes: 3.3%
Substance: rat IgG anti-mouse CD40, 1C10 (antibody)
